The results in this text go back to paper PMC9479004, “Cloning and characterization of a novel functional organic anion transporting polypeptide 3A1 isoform highly expressed in the human brain and testis” (Frontiers in Pharmacology, 2022).

Substrate in the series: CCN(CC)c1ccc2cc(/C=C/c3cc[n+](CCCN=[N+]=[N-])cc3S(=O)(=O)[O-])c(=O)oc2c1
The series is described as follows: fluorescent dye uptake by flow cytometry, HEK-293 overexpressing cells. As to conditions: pH 7.4, 37 °C, 10 min, 5-400 µM ACPS, mock-subtracted. It counts as cell-based, Homo sapiens. In general terms: Flow cytometry measures light scatter and fluorescence of single cells or particles in a stream.

For orientation: Km means the concentration of substrate that gives half-maximal velocity.

B1: OATP3A1_V2 (Homo sapiens; E294D) (protein)
chain: MQGKKPGGSSGGGRSGELQGDEAQRNKKKKKKVSCFSNIKIFLVSECALMLAQGTVGAYLVSVLTTLERRFNLQSADVGVIASSFEIGNLALILFVSYFGARGHRPRLIGCGGIVMALGALLSALPEFLTHQYKYEAGEIRWGAEGRDVCAANGSGGDEGPDPDLICRNRTATNMMYLLLIGAQVLLGIGATPVQPLGVSYIDDHVRRKDSSLYIGILFTMLVFGPACGFILGSFCTKIYVDAVFIDTSNLDITPDDPRWIGAWWGGFLLCGALLFFSSLLMFGFPQSLPPHSDPAMESEQAMLSEREYERPKPSNGVLRHPLEPDSSASCFQQLRVIPKVTKHLLSNPVFTCIILAACMEIAVVAGFAAFLGKYLEQQFNLTTSSANQLLGMTAIPCACLGIFLGGLLVKKLSLSALGAIRMAMLVNLVSTACYVSFLFLGCDTGPVAGVTVPYGNSTAPGSALDPYSPCNNNCECQTDSFTPVCGADGITYLSACFAGCNSTNLTGCACLTTVPAENATVVPGKCPSPGCQEAFLTFLCVMCICSLIGAMAQTPSVIILIRTVSPELKSYALGVLFLLLRLLGFIPPPLIFGAGIDSTCLFWSTFCGEQGACVLYDNVVYRYLYVSIAIALKSFAFILYTTTWQCLRKNYKRYIKNHEGGLSTSTEYQDIETEKTCPESHSPSEDSFVRS
notes: full-length ORF from brain RNA, 692 residues, E294D polymorphism (rs1517618), untagged, lentiviral overexpression in HEK-293
For B1, the Michaelis-Menten constant (Km) amounted to 31.7 µM.

B2: OATP3A1_V3 (Homo sapiens; E294D) (protein)
chain: MQGKKPGGSSGGGRSGELQGDEAQRNKKKKKKVSCFSNIKIFLVSECALMLAQGTVGAYLVSVLTTLERRFNLQSADVGVIASSFEIGNLALILFVSYFGARGHRPRLIGCGGIVMALGALLSALPEFLTHQYKYEAGEIRWGAEGRDVCAANGSGGDEGPDPDLICRNRTATNMMYLLLIGAQVLLGIGATPVQPLGVSYIDDHVRRKDSSLYIGILFTMLVFGPACGFILGSFCTKIYVDAVFIDTSNLDITPDDPRWIGAWWGGFLLCGALLFFSSLLMFGFPQSLPPHSDPAMESEQAMLSEREYERPKPSNGVLRHPLEPDSSASCFQQLRVIPKVTKHLLSNPVFTCIILAACMEIAVVAGFAAFLGKYLEQQFNLTTSSANQLLGMTAIPCACLGIFLGGLLVKKLSLSALGAIRMAMLVNLVSTACYVSFLFLGCDTGPVAGVTVPYGNSTAPGSALDPYSPCNNNCECQTDSFTPVCGADGITYLSACFAGCNSTNLTGCACLTTVPAENATVVPGKCPSPGCQEAFLTFLCVMCICSLIGAMAQTPSVIILIRTVSPELKSYALGVLFLLLRLLGFIPPPLIFGAGIDSTCLFWSTFCGEQGACVLYDNVVYRYLYVSIAIALKSFAFILYTTTWQCLRKNYKRYIKNHEGGLSTTSEPDRIQNKERMTSCGRVLEATCAAGPQSLL
notes: full-length ORF from brain RNA, 697 residues, E294D polymorphism (rs1517618), untagged, lentiviral overexpression in HEK-293; C-terminal peptide (C)VLEATCAAGPQSLL
Take B2: the Km was determined as 35 µM.

B3: OATP3A1_V1 (Homo sapiens; E294D) (protein)
chain: MQGKKPGGSSGGGRSGELQGDEAQRNKKKKKKVSCFSNIKIFLVSECALMLAQGTVGAYLVSVLTTLERRFNLQSADVGVIASSFEIGNLALILFVSYFGARGHRPRLIGCGGIVMALGALLSALPEFLTHQYKYEAGEIRWGAEGRDVCAANGSGGDEGPDPDLICRNRTATNMMYLLLIGAQVLLGIGATPVQPLGVSYIDDHVRRKDSSLYIGILFTMLVFGPACGFILGSFCTKIYVDAVFIDTSNLDITPDDPRWIGAWWGGFLLCGALLFFSSLLMFGFPQSLPPHSDPAMESEQAMLSEREYERPKPSNGVLRHPLEPDSSASCFQQLRVIPKVTKHLLSNPVFTCIILAACMEIAVVAGFAAFLGKYLEQQFNLTTSSANQLLGMTAIPCACLGIFLGGLLVKKLSLSALGAIRMAMLVNLVSTACYVSFLFLGCDTGPVAGVTVPYGNSTAPGSALDPYSPCNNNCECQTDSFTPVCGADGITYLSACFAGCNSTNLTGCACLTTVPAENATVVPGKCPSPGCQEAFLTFLCVMCICSLIGAMAQTPSVIILIRTVSPELKSYALGVLFLLLRLLGFIPPPLIFGAGIDSTCLFWSTFCGEQGACVLYDNVVYRYLYVSIAIALKSFAFILYTTTWQCLRKNYKRYIKNHEGGLSTSEFFASTLTLDNLGRDPVPANQTHRTKFIYNLEDHEWCENMESVL
notes: full-length ORF from brain RNA, 710 residues, E294D polymorphism (rs1517618), untagged, lentiviral overexpression in HEK-293
Regarding B3, the Km was found to be 37.7 µM.
